± gives the uncertainty stated by the source.
B1: Steroid hormone receptor ERR2, residues 100 to 176; numbered along this chain, O95718 (parent)
chain: KRLCLVCGDIASGYHYGVASCEACKAFFKRTIQGNIEYSCPATNECEITKRRRKSCQACRFMKCLKVGMLKEGVRLD

Variants of: B1
Experiment: abundance fitness (aPCA) (normalised: wild type 0, dead -1); higher = more abundant; growth selection in yeast, the domain comes from the species named
Conditions: Homo sapiens

Variant	abundance fitness
KRLCLVCGIIASGYHYGVASCEACKAFFKRTIQGNIEYSCPATNECEITKRRRKSCQACRFMKCLKVGMLKEGVRLD [D9I]	-0.369 ± 0.15
KRLCLVCGGIASGYHYGVASCEACKAFFKRTIQGNIEYSCPATNECEITKRRRKSCQACRFMKCLKVGMLKEGVRLD [D9G]	-0.208 ± 0.045
KRLCLVCGQIASGYHYGVASCEACKAFFKRTIQGNIEYSCPATNECEITKRRRKSCQACRFMKCLKVGMLKEGVRLD [D9Q]	-0.143 ± 0.078
KRLCLVCGRIASGYHYGVASCEACKAFFKRTIQGNIEYSCPATNECEITKRRRKSCQACRFMKCLKVGMLKEGVRLD [D9R]	-0.508 ± 0.066
KRLCLVCGDIFSGYHYGVASCEACKAFFKRTIQGNIEYSCPATNECEITKRRRKSCQACRFMKCLKVGMLKEGVRLD [A11F]	-0.213 ± 0.1
KRLCLVCGDICSGYHYGVASCEACKAFFKRTIQGNIEYSCPATNECEITKRRRKSCQACRFMKCLKVGMLKEGVRLD [A11C]	-0.177 ± 0.092
KRLCLVCGDINSGYHYGVASCEACKAFFKRTIQGNIEYSCPATNECEITKRRRKSCQACRFMKCLKVGMLKEGVRLD [A11N]	-0.153 ± 0.099
KRLCLVCGDIDSGYHYGVASCEACKAFFKRTIQGNIEYSCPATNECEITKRRRKSCQACRFMKCLKVGMLKEGVRLD [A11D]	-0.241 ± 0.1
KRLCLVCGDIISGYHYGVASCEACKAFFKRTIQGNIEYSCPATNECEITKRRRKSCQACRFMKCLKVGMLKEGVRLD [A11I]	-0.377 ± 0.14
KRLCLVCGDILSGYHYGVASCEACKAFFKRTIQGNIEYSCPATNECEITKRRRKSCQACRFMKCLKVGMLKEGVRLD [A11L]	-0.311 ± 0.063
KRLCLVCGDIGSGYHYGVASCEACKAFFKRTIQGNIEYSCPATNECEITKRRRKSCQACRFMKCLKVGMLKEGVRLD [A11G]	-0.013 ± 0.043
KRLCLVCGDIPSGYHYGVASCEACKAFFKRTIQGNIEYSCPATNECEITKRRRKSCQACRFMKCLKVGMLKEGVRLD [A11P]	-0.542 ± 0.14
KRLCLVCGDIESGYHYGVASCEACKAFFKRTIQGNIEYSCPATNECEITKRRRKSCQACRFMKCLKVGMLKEGVRLD [A11E]	-0.11 ± 0.063
KRLCLVCGDIKSGYHYGVASCEACKAFFKRTIQGNIEYSCPATNECEITKRRRKSCQACRFMKCLKVGMLKEGVRLD [A11K]	-0.424 ± 0.077
KRLCLVCGDIMSGYHYGVASCEACKAFFKRTIQGNIEYSCPATNECEITKRRRKSCQACRFMKCLKVGMLKEGVRLD [A11M]	-0.103 ± 0.064
KRLCLVCGDIRSGYHYGVASCEACKAFFKRTIQGNIEYSCPATNECEITKRRRKSCQACRFMKCLKVGMLKEGVRLD [A11R]	-0.516 ± 0.067
KRLCLVCGDIHSGYHYGVASCEACKAFFKRTIQGNIEYSCPATNECEITKRRRKSCQACRFMKCLKVGMLKEGVRLD [A11H]	-0.691 ± 0.21
KRLCLVCGDIQSGYHYGVASCEACKAFFKRTIQGNIEYSCPATNECEITKRRRKSCQACRFMKCLKVGMLKEGVRLD [A11Q]	-0.217 ± 0.078

Variant	abundance fitness
KRLCLVCGDISSGYHYGVASCEACKAFFKRTIQGNIEYSCPATNECEITKRRRKSCQACRFMKCLKVGMLKEGVRLD [A11S]	0.067 ± 0.051
KRLCLVCGDWASGYHYGVASCEACKAFFKRTIQGNIEYSCPATNECEITKRRRKSCQACRFMKCLKVGMLKEGVRLD [I10W]	0.074 ± 0.06
KRLCLVCGDDASGYHYGVASCEACKAFFKRTIQGNIEYSCPATNECEITKRRRKSCQACRFMKCLKVGMLKEGVRLD [I10D]	0.195 ± 0.067
KRLCLVCGDAASGYHYGVASCEACKAFFKRTIQGNIEYSCPATNECEITKRRRKSCQACRFMKCLKVGMLKEGVRLD [I10A]	0.275 ± 0.046
KRLCLVCGDRASGYHYGVASCEACKAFFKRTIQGNIEYSCPATNECEITKRRRKSCQACRFMKCLKVGMLKEGVRLD [I10R]	-0.046 ± 0.044
KRLCLVCGDKASGYHYGVASCEACKAFFKRTIQGNIEYSCPATNECEITKRRRKSCQACRFMKCLKVGMLKEGVRLD [I10K]	0.037 ± 0.06
KRLCLVCGDNASGYHYGVASCEACKAFFKRTIQGNIEYSCPATNECEITKRRRKSCQACRFMKCLKVGMLKEGVRLD [I10N]	-0.393 ± 0.11
KRLCLVCGDPASGYHYGVASCEACKAFFKRTIQGNIEYSCPATNECEITKRRRKSCQACRFMKCLKVGMLKEGVRLD [I10P]	0.065 ± 0.072
KRLCLVCGDMASGYHYGVASCEACKAFFKRTIQGNIEYSCPATNECEITKRRRKSCQACRFMKCLKVGMLKEGVRLD [I10M]	-0.065 ± 0.054
KRLCLVCGDSASGYHYGVASCEACKAFFKRTIQGNIEYSCPATNECEITKRRRKSCQACRFMKCLKVGMLKEGVRLD [I10S]	-0.033 ± 0.055
KRLCLVCGDVASGYHYGVASCEACKAFFKRTIQGNIEYSCPATNECEITKRRRKSCQACRFMKCLKVGMLKEGVRLD [I10V]	0.242 ± 0.041
KRLCLVCGDTASGYHYGVASCEACKAFFKRTIQGNIEYSCPATNECEITKRRRKSCQACRFMKCLKVGMLKEGVRLD [I10T]	0.02 ± 0.062
KRLCLVCGDCASGYHYGVASCEACKAFFKRTIQGNIEYSCPATNECEITKRRRKSCQACRFMKCLKVGMLKEGVRLD [I10C]	-0.058 ± 0.077
KRLCLVCGDFASGYHYGVASCEACKAFFKRTIQGNIEYSCPATNECEITKRRRKSCQACRFMKCLKVGMLKEGVRLD [I10F]	0.056 ± 0.091
KRLCLVCGDLASGYHYGVASCEACKAFFKRTIQGNIEYSCPATNECEITKRRRKSCQACRFMKCLKVGMLKEGVRLD [I10L]	-0.139 ± 0.056
KRLCLVCGDEASGYHYGVASCEACKAFFKRTIQGNIEYSCPATNECEITKRRRKSCQACRFMKCLKVGMLKEGVRLD [I10E]	0.045 ± 0.051
KRLCLVCGDYASGYHYGVASCEACKAFFKRTIQGNIEYSCPATNECEITKRRRKSCQACRFMKCLKVGMLKEGVRLD [I10Y]	-0.029 ± 0.084
KRLCLVCGDHASGYHYGVASCEACKAFFKRTIQGNIEYSCPATNECEITKRRRKSCQACRFMKCLKVGMLKEGVRLD [I10H]	-0.011 ± 0.084
